# The RNAGym collection of RNA variant scans (doi:10.7554/elife.80360)
# B1: Hairpin Ribozyme (parent)
# chain: GUCCUCUUUCACGUGCGCGUGAAAGAGAGAAGUGAACCAGAGAAACACACGUUGUGGUAUAUUACCUGGUA
# Variants of: B1
# Assay: self-cleavage, relative activity (ratio to wild type); higher = more cleavage; co-transcriptional
row,Variant,self-cleavage
1,GUCCUCUUUCACGUGCGCGUGAAAGACAGAAGUGAACCAGAGAAACACACGUUGUGGUAUAUUACCUGCUA [G27C G69C],0.1
2,GUCCUCUUUCACGUGCGCGUGAAAGACAGAAGUGAACCAGAGAAACACACGUUGUGGUAUAUUACCGGGUA [G27C U67G],0.0952
3,GUCCUCUUUCACGUGCGCGUGAAAGAUUGAAGUGAACCAGAGAAACACACGUUGUGGUAUAUUACCUGGUA [G27U A28U],0.148
4,GUCCUCUUUCACGUGCGCGUGAAAGACAGAAGUGAACCAGAGAAACACACGUUGAGGUAUAUUACCUGGUA [G27C U55A],0.156
5,GUCCUCUUUCACGUGCGCGUGAAAGACAGAAGUGAACCAGAGAAACACACGUUGGGGUAUAUUACCUGGUA [G27C U55G],0.113
6,GUCCUCUUUCACGUGCGCGUGAAAGACAAAAGUGAACCAGAGAAACACACGUUGUGGUAUAUUACCUGGUA [G27C G29A],0.138
7,GUCCUCUUUCACGUGCGCGUGAAAGACAUAAGUGAACCAGAGAAACACACGUUGUGGUAUAUUACCUGGUA [G27C G29U],0.179
8,GUCCUCUUUCACGUGCGCGUGAAAGACAGAAGUCAACCAGAGAAACACACGUUGUGGUAUAUUACCUGGUA [G27C G34C],0.971
9,GUCCUCUUUCACGUGCGCGUGAAAGACAGAAGUAAACCAGAGAAACACACGUUGUGGUAUAUUACCUGGUA [G27C G34A],0.161
10,GUCCUCUUUCACGUGCGCGUGAAAGACAGAAGUUAACCAGAGAAACACACGUUGUGGUAUAUUACCUGGUA [G27C G34U],0.779
11,GUCCUCUUUCACGUGCGCGUGAAAGACAGAAGUGAACCACAGAAACACACGUUGUGGUAUAUUACCUGGUA [G27C G40C],0.107
12,GUCCUCUUUCACGUGCGCGUGAAAGACAGAAGUGAACCAAAGAAACACACGUUGUGGUAUAUUACCUGGUA [G27C G40A],0.0679
13,GUCCUCUUUCACGUGCGCGUGAAAGACAGAAGUGAACCAGAGAAACACACGUUCUGGUAUAUUACCUGGUA [G27C G54C],0.151
14,GUCCUCUUUCACGUGCGCGUGAAAGACAGAAGUGAACCAGAGAAACACACGUUUUGGUAUAUUACCUGGUA [G27C G54U],0.192
15,GUCCUCUUUCACGUGCGCGUGAAAGACAGAAGUGAACCAGAGAAACACACGUUGUGCUAUAUUACCUGGUA [G27C G57C],0.0926
16,GUCCUCUUUCACGUGCGCGUGAAAGACAGAAGUGAACCAGAGAAACACACGUUGUGAUAUAUUACCUGGUA [G27C G57A],0.15
17,GUCCUCUUUCACGUGCGCGUGAAAGACAGAAGUGAACCAGAGAAACACACGUUGUGUUAUAUUACCUGGUA [G27C G57U],0.174
18,GUCCUCUUUCACGUGCGCGUGAAAGACAGAAGUGAACCAGAGAAACACACAUUGUGGUAUAUUACCUGGUA [G27C G51A],0.266
19,GUCCUCUUUCACGUGCGCGUGAAAGACAGAAGUGAACCAGAGAAACACACGUCGUGGUAUAUUACCUGGUA [G27C U53C],0.318

row,Variant,self-cleavage
1,GUCCUCUUUCACGUGCGCGUGAAAGACAGAAGUGAACCAGAGAAACACACGUUGUGGUAUAUUACUUGGUA [G27C C66U],0.162
2,GUCCUCUUUCACGUGCGCGUGAAAGACAGAAGUGAACCAGAGAAACACACGCUGUGGUAUAUUACCUGGUA [G27C U52C],0.22
3,GUCCUCUUUCACGUGCGCGUGAAAGACAGAAGUGAACCAGAGAAACACACGAUGUGGUAUAUUACCUGGUA [G27C U52A],0.167
4,GUCCUCUUUCACGUGCGCGUGAAAGACAGAAGUGAACCAGAGAAACACACGGUGUGGUAUAUUACCUGGUA [G27C U52G],0.163
5,GUCCUCUUUCACGUGCGCGUGAAAGACAGAAGUGAACCAGAGAAACACACGUUGUUGUAUAUUACCUGGUA [G27C G56U],0.131
6,GUCCUCUUUCACGUGCGCGUGAAAGACAGAAGUGAACCAGAGAAACACACGUUGUAGUAUAUUACCUGGUA [G27C G56A],0.0609
7,GUCCUCUUUCACGUGCGCGUGAAAGAUAGAAGUGAACCAGAGAAACACACGUUGUGGUAUAUUACCUGGUA [G27U],0.282
8,GUCCUCUUUCACGUGCGCGUGAAAGACAGAAGUGAACCAGAGAAACACACGUUGUGGUACAUUACCUGGUA [G27C U60C],0.333
9,GUCCUCUUUCACGUGCGCGUGAAAGAUAGAAGUGACCCAGAGAAACACACGUUGUGGUAUAUUACCUGGUA [G27U A36C],0.0992
10,GUCCUCUUUCACGUGCGCGUGAAAGAUAGUAGUGAACCAGAGAAACACACGUUGUGGUAUAUUACCUGGUA [G27U A30U],0.116
11,GUCCUCUUUCACGUGCGCGUGAAAGACAGAAGUGAACCAGAGAAACACACGUUGUGGUAUAUUACCUAGUA [G27C G68A],0.105
12,GUCCUCUUUCACGUGCGCGUGAAAGACAGAAGUGAACCAGAGAAACACACGUUGUGGUAUAUUACCUCGUA [G27C G68C],0.0698
13,GUCCUCUUUCACGUGCGCGUGAAAGACAGAAGCGAACCAGAGAAACACACGUUGUGGUAUAUUACCUGGUA [G27C U33C],0.117
14,GUCCUCUUUCACGUGCGCGUGAAAGACAGAAGAGAACCAGAGAAACACACGUUGUGGUAUAUUACCUGGUA [G27C U33A],0.0754
15,GUCCUCUUUCACGUGCGCGUGAAAGACAGAAGGGAACCAGAGAAACACACGUUGUGGUAUAUUACCUGGUA [G27C U33G],0.0854
16,GUCCUCUUUCACGUGCGCGUGAAAGAUAGAAGUGUACCAGAGAAACACACGUUGUGGUAUAUUACCUGGUA [G27U A35U],0.203
17,GUCCUCUUUCACGUGCGCGUGAAAGAUAGAAGUGCACCAGAGAAACACACGUUGUGGUAUAUUACCUGGUA [G27U A35C],0.44
18,GUCCUCUUUCACGUGCGCGUGAAAGAUAGACGUGAACCAGAGAAACACACGUUGUGGUAUAUUACCUGGUA [G27U A31C],0.205
19,GUCCUCUUUCACGUGCGCGUGAAAGAUAGAUGUGAACCAGAGAAACACACGUUGUGGUAUAUUACCUGGUA [G27U A31U],0.119
